B1: unnamed (parent)
chain 1: RPDKPRPYLPRPRPPRPVR
chain 2: not shown

Variants of: B1
Test: competitive fluorescence polarization
Details: with partner chain of the complex shown; S. aureus DnaK 16 µmol/L; unlabeled peptide 35 µmol/L

| Variant | ratio to parent |
| --- | --- |
| chain 1 Y8L | < 1 |
| chain 1 D3S K4S Y8L | < 1 |
| chain 1 D3K R11L | < 1 |
| chain 1 D3F K4F P10D | < 1 |
| chain 1 D3F K4F P10S | < 1 |
| chain 1 D3K K4F | < 1 |
| chain 1 D3K K4L | < 1 |
| chain 1 D3K K4S | < 1 |
| chain 1 D3S K4S R11L | < 1 |
| chain 1 D3F K4F R11F | < 1 |
| chain 1 D3F K4F R11L | < 1 |

From article PMC8864165, “Functional Effects of ARV-1502 Analogs Against Bacterial Hsp70 and Implications for Antimicrobial Activity” (Frontiers in Chemistry, 2022)
